In experiment [1] the target is T1, TNFR2-His (Sino Biological, 10417-H08H, NP_001057.1 Met1-Asp257, with multi-histidine tag expressed on … (human, UniProt P20333 23-257)).
T1 construct: range 1-257; Bought protein; also called recombinant human TNFR2 protein; TNFR2-His antigen; not shown: C-terminal multi-histidine tag
T1 sequence (looked up): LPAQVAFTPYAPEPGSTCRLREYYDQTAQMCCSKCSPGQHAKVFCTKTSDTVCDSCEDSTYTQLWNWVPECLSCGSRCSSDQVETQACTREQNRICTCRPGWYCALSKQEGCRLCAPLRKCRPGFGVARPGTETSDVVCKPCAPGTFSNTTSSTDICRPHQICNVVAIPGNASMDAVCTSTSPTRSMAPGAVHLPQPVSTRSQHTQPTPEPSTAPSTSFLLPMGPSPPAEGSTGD
Put plainly: ELISA, coated TNFR2-His. The gist of the method:
(§1)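 ELISA on plates coated with recombinant human TNFR2 carrying a C-terminal His tag, then blocked. Serially diluted antibodies were incubated, followed by an enzyme-labelled anti-IgG secondary antibody. Plates were developed with TMB and read on a microplate reader. EC50 is reported from the dilution series.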
In general terms: An ELISA detects its analyte on a solid surface through an enzyme-linked reagent.

Experiment [2] concerns the target T2, human TNFR2 on the cell membrane (human, UniProt P20333 23-461).
T2 construct: whole, on cells; One molecule for all cell formats; also called TNFR2-CHO cells; CHO-TNFR2
T2 sequence (looked up): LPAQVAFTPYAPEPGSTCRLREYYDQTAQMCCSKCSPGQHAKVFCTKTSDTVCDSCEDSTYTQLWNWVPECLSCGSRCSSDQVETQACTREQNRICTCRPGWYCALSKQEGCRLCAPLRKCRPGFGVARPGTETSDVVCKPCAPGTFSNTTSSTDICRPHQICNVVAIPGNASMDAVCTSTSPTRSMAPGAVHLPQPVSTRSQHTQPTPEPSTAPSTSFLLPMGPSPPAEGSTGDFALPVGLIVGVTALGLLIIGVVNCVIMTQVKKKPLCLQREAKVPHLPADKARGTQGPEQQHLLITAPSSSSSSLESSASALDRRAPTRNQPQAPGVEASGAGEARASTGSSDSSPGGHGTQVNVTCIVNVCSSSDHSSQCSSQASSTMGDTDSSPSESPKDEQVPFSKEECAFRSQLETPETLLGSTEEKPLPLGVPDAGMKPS
Put plainly: flow cytometry, Jurkat-TNFR2 cells. The protocol:
(§2) Purified human-mouse monoclonal antibodies against TNFR2 were co-cultured with TNFR2 positive Jurkat cells (Jurkat cells were transfected with pcDNA3.4-TNFR2 plasmid using conventional methods, and after screening, stable and highly expressed TNFR2 Jurkat cell lines were obtained) and stained. The antibody binding intensity was analyzed by flow cytometry. The specific steps are as follows: Jurkat-TNFR2 was counted, centrifuged, resuspended, then added to a 96-deep well plate, and the supernatant was discarded. The anti-TNFR2 antibody was gradient diluted, and added to the 96-deep well plate, After incubation and wash, the secondary antibody FITC-anti-human IgG (Abcam: 6854) was added, and the samples were detected using Beckman CytoFLEX.

The target in experiment [3] is T1, TNFR2-His (Sino Biological, 10417-H08H, …). Put plainly: ELISA, plate coated with TNFR2-His. The protocol: To determine whether the human-mouse chimeric TNFR2 monoclonal antibody of the present invention can bind to recombinant human TNFR2 protein, in vitro ELISA test was conducted. Similar to the method described above, The plate was coated with TNFR2-His (Sino Biological, 10417-H08H, Assessment #NP_001057.1.Met1-Asp257, with multi-histidine tag expressed on C-terminus) antigens, and blocked with BSA, then added with gradient diluted human-mouse chimeric TNFR2 monoclonal antibodies for incubation. Then, secondary antibody Ap-anit-human IgG Fc (JacksonImmuno Research, 109-055-098) was added for incubation After TMB development, ELISA reading was performed.

Experiment [4] deals with T2, human TNFR2 on the cell membrane. In words: flow cytometry on Jurkat-TNFR2 cells. How it is done:
as §2
In general terms: A flow cytometer gives signals particle by particle.

For experiment [5], the target named is T1, TNFR2-His (Sino Biological, 10417-H08H, …). In words: BLI, antibody captured on AHC probe, TNFR2 in solution. The protocol: The GATOR (ProbeLife) detection instrument and AHC (Pall, 185064), Human antibody Capture probe were used to detect the dissociation constant (Kd) of human-mouse chimeric TNFR2 monoclonal antibody.
The human-mouse chimeric TNFR2 monoclonal antibodies were diluted to 50 nM in binding buffer (Q buffer [PBS (10 mM PH7.4)+0.02% Tween 20+0.2% BSA). The recombinant human TNFR2 protein was diluted in Q buffer with a 2-fold gradient starting from the highest concentration of 100 nM. The kinetic association assay was conducted by placing the antibody capture sensor in the continuously diluted antigen solutions mentioned above. The Octet Data Acquisition software was pened and the New Kinetics Experiment-Basic Kinetics mode was selected.
(In general: Biolayer interferometry detects binding as a change in optical thickness at a sensor tip.)

Experiment [6] has as its target T3, WT.
T3 construct: also called T cells of wild-type (WT) mice; mouse TNFR2 on the cell membrane
T3 chain: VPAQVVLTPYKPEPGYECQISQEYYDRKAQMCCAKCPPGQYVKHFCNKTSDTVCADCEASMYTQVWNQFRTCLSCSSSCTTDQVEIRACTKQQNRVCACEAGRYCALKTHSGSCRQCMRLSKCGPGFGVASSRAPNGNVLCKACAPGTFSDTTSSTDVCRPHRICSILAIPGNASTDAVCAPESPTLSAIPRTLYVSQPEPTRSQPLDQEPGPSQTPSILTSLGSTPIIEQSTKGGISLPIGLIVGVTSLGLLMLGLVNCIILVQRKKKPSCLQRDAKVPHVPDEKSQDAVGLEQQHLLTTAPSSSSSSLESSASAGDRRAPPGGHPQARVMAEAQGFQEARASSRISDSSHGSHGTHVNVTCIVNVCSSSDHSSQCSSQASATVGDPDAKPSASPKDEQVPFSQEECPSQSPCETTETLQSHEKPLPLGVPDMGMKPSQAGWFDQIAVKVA
Put plainly: flow cytometry on ConA-stimulated spleen cells of WT mice, mCD3+ T cells. The protocol: (§3) The cells were stained again with Cy-3 anti-human IgG and FITC anti-mCD3 (BD, 555274) after washing, under the same incubation conditions. After washing, the detection was performed.

The target in experiment [7] is T2, human TNFR2 on the cell membrane. Put plainly: competition flow cytometry, TNFR2 positive cells, TNFα fusion protein at fixed concentration. The protocol:
Purified anti-human TNFR2 human-mouse monoclonal antibodies were co-cultured with TNFR2 positive cells and stained. The antibody binding intensity was analyzed by flow cytometry. The specific steps are as follows: cells were counted, centrifugated, resuspended, then added to a 96-deep well plate, and the supernatant was discarded. Gradient diluted anti-TNFR2 antibodies and TNFα fusion protein of fixed concentration were added. After incubation and wash, the secondary antibody PE-streptavidin (Biogen, 405203) was added for incubation, and the samples were detected using Beckman CytoFLEX.

Experiment [8] has the same target. Put plainly: flow cytometry on ConA-stimulated spleen cells of hTNFR2-KI mice, mCD3+ T cells. How it is done:
as §3

Experiment [9] concerns the target T1, TNFR2-His (Sino Biological, 10417-H08H, …). In words: competition ELISA, coated TNFR2-His, biotin-labeled TNFα fusion protein at fixed concentration. The protocol:
(§4) The ELISA plate was coated with TNFR2-His antigen (Sino Biological, 10417-H08H, Assessment #NP_001057.1. Met1-Asp257, with multi-histidine tags expressed on C-terminus) and blocked, added with the gradient diluted TNFR2 monoclonal antibodies and biotin-labeled TNFα fusion protein of fixed concentration for incubation, then added with the secondary antibody Ap-Strepavidin (Herobio, 510401) for incubation. After development, the detection was performed using microplate reader.

Experiment [10] has the same target. In words: competition ELISA on coated TNFR2-His against biotin-labeled TNFα fusion protein at fixed concentration. How it is done: as §4
For experiment [11], the target named is T2, human TNFR2 on the cell membrane. In words: flow cytometry, CHO-TNFR2 cells. Summed up:
(§5)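 Flow cytometry on CHO cells stably overexpressing human TNFR2, made by pcDNA3.4-TNFR2 transfection, drug selection and single-clone sorting. Cells in 96-deep-well plates were incubated with serially diluted antibodies, washed and stained with a fluorescent anti-IgG secondary antibody. Samples were read on a Beckman CytoFLEX. EC50 is reported from the dilution series.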

The target is the same in experiment [12]. Put plainly: flow cytometry on CHO-TNFR2 cells. The gist of the method: as §5
The target in experiment [13] is T1, TNFR2-His (Sino Biological, 10417-H08H, …). In words: ELISA, plate coated with TNFR2-His. The gist of the method:
as §1
This is another data set of the same source.

Experiment [14] shares this target. In words: BLI, antibody captured on AHC probe, TNFR2-His in solution. The gist of the method: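 Kon, koff and Kd were derived from kinetic association measurements by bio-layer interferometry on an Octet in Basic Kinetics mode. Antibody-capture sensors held antibodies at 50 nM in Q buffer (10 mM PBS pH 7.4, 0.02% Tween 20, 0.2% BSA). These sensors were then placed in recombinant human TNFR2, diluted 2-fold in Q buffer from a top concentration of 100 nM.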

Experiment [15] deals with T2, human TNFR2 on the cell membrane. In words: flow cytometry on human PBMC, CD3+ T cells. The protocol: Purified anti-human TNFR2 human-mouse chimeric monoclonal antibodies were co-cultured with PBMC cells (Oricells) and stained. The binding of the antibody was analyzed by flow cytometry. The specific steps are as follows: PBMC cells (Oricells) were counted, centrifuged, resuspended, then added to a 96-deep well plate, and the supernatant was discarded. Diluted anti-TNFR2 monoclonal antibodies were added.

Data on three molecules can be found in US20240392024A1 (SHANGHAI CELGEN BIO PHARMACEUTICAL, published 2024).

“And” between values parts separate entries of the source, which are not always exact repeats. Identical values can stand only once.

B1: human-mouse chimeric TNFR2 monoclonal antibody 7F2-hFc (antibody, V domains shown)
VH: QVTLKESGPGILQPSQTLSLTCSFSGFSLNTFGLGVGWIRQPSGKGLEWLTHIWWNDDKYYNPALKSRLTISRDTSENLVFLKIANVDTADTATYYCARIEGLRRFDYWGQGTTLTVSS
VL: DIQMTQSPSSLSASLGGKVTITCKTSQDINKFIAWYQHKPGKGPRLLIHYTSTLQPGIPSRFSGSGSGRDYSFSISDLEPEDIATYYCLQYANLWAFGGGTKLEIK
notes: Mouse V regions of clone 7F2 with human constant regions
What is called EC50 is the concentration at which the effect is half-maximal. As usually defined, the Kd is the concentration at which binding is half-saturated. Lower therefore signals higher affinity. Usually koff stands for the first-order rate constant of dissociation. Lower therefore signals slow dissociation. A word on the kon: it is the rate constant with which the complex forms. The IC50 is the concentration at which inhibition is half-maximal. Turning to B1, the EC50 in [1] was 0.319 nM; in experiment [2] it was 0.024 µg/mL; in [3] it was 0.0476 µg/mL; in experiment [4], 0.0243 µg/mL. Further, in [5], the Kd turned out to be 25.3 nM. The same molecule yielded an off-rate constant (koff) in experiment [5] of 0.00639 s⁻¹. Further, the kon in experiment [5] was 253000 M⁻¹ s⁻¹. Further, the binding result in experiment [6] is “no binding”. Also, the results for the “percent of cells in the upper right quadrant (Q2-UR, mCD3+ and anti-hIgG+)” value in [6] and in experiment [8] were 0.9% and 45%, respectively. Moreover, the IC50 is 0.417 µg/mL in experiment [7]; 0.225 µg/mL in [9]; 0.229 µg/mL and 1.53 nM in [10].

B2: human-mouse chimeric TNFR2 monoclonal antibody 33C12-hFc (antibody, V domains shown)
VH: DVKLVESGGGLVKPGGSLKLSCAASGFTFSDYTMSWVRQTPEKRLEWVATISTGGSYTYYPDSVKGRFTISRDNAKNTLYLQMSSLKSEDTAMYYCTRDGGYDGDYFDYWGQGTTLTVSS
VL: ENVLTQSPAIMSASPGEKVTMTCRASSSVSSSYLHWYQQKSGASPKLWIYRTSNLASGVPARFSGSGSGTSYSLTISSVEAEDAATYYCQQYSGYPLTFGAGTRLELK
notes: Mouse V regions of clone 33C12 with human constant regions; also called human-mouse chimeric 33C12 antibody
For the molecule B2, the EC50 was 0.318 nM in experiment [1]; 0.951 nM in experiment [11]; 0.66 µg/mL in experiment [2]; 0.0475 µg/mL in experiment [3]; 0.142 µg/mL in experiment [12]; 0.658 µg/mL in experiment [4]. Besides, the EC50 in experiment [13] is 0.0782 µg/mL and 0.524 nM. In addition, the Kd in experiment [5] worked out at 21.9 nM; in experiment [14] it was 17.3 nM. In addition, the koff in [5] is 0.00286 s⁻¹; in [14] it was 0.00156 s⁻¹. Further, the kon came to 131000 M⁻¹ s⁻¹ in experiment [5] and 90500 M⁻¹ s⁻¹ in [14]. The binding result in experiment [6] is “no binding”. The “percent of cells in the upper right quadrant (Q2-UR, mCD3+ and anti-hIgG+)” value was 1.02% in experiment [6] and 43.6% in experiment [8].

B3: human-mouse chimeric TNFR2 monoclonal antibody 29A1-hFc (antibody, V domains shown)
VH: QVQLQQSGAEVVRPGASVTLSCKASGYTFSDYEMHWVKQTPVHGLEWIGAIDPETGDTAYNQKFKDKARVTADKSSSTAYMELRSLTSEDSAVYYCTRDIHYYGSSLSYFDYWGQGTTLTVSS
VL: DIVMTQSQKFMSTSVGDRVSVTCKASQNVGTNVAWYQQKPGQSPKVMIYSASYRYSGAPDRFTGSGSGTDFTLTVNNVQSEDLAEYFCQQYKTYPYTFGGGTKLEIE
notes: Mouse V regions of clone 29A1 with human constant regions
As to B3, the EC50 in experiment [1] was found to be 0.248 nM; in [3], 0.037 µg/mL; in [4], 14.2 µg/mL. Further, the “percent of cells in the upper right quadrant (Q1-UR, CD3+ and anti-human IgG Fc+)” value in experiment [15] was determined as 13.6%. For the same molecule, the Kd in experiment [5] was determined as 16.3 nM. Also, the koff in experiment [5] stood at 0.00469 s⁻¹. Besides, the kon in experiment [5] stood at 289000 M⁻¹ s⁻¹. Also, the IC50 is 0.642 µg/mL in experiment [9]; 0.648 µg/mL and 4.34 nM in [10].
